No end group written: not given here.
Assays:
Assay in all cases: Kinase Profiling Assay
Assay type in all cases: biochemical
Details in all cases: peptide 100 μM
SAPK3(h) = target: T1, SAPK3(h) (Homo sapiens, UniProt P53778)
T1 construct: purchased Millipore
T1 sequence (P53778 1-367): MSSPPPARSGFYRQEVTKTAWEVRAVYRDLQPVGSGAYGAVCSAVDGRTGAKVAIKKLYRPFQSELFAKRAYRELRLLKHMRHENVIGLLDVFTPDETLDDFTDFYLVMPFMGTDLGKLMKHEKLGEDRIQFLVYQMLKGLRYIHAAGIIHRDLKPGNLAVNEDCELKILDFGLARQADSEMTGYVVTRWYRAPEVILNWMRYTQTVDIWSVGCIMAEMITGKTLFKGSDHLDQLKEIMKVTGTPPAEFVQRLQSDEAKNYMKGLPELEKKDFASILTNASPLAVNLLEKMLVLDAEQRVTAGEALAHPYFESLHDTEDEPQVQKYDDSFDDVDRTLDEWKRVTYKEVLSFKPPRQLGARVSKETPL
Outline: (§1)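 Kinase inhibition by MK2 inhibitory peptides was profiled radiometrically, with substrate phosphorylation from labeled ATP read by scintillation after capture on a charged filter. Values are relative to 100% activity and measured in duplicate.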

Hck(h) activated = target: T2, Hck(h) activated (Homo sapiens, UniProt P08631)
T2 construct: purchased Millipore
T2 sequence (P08631 whole entry): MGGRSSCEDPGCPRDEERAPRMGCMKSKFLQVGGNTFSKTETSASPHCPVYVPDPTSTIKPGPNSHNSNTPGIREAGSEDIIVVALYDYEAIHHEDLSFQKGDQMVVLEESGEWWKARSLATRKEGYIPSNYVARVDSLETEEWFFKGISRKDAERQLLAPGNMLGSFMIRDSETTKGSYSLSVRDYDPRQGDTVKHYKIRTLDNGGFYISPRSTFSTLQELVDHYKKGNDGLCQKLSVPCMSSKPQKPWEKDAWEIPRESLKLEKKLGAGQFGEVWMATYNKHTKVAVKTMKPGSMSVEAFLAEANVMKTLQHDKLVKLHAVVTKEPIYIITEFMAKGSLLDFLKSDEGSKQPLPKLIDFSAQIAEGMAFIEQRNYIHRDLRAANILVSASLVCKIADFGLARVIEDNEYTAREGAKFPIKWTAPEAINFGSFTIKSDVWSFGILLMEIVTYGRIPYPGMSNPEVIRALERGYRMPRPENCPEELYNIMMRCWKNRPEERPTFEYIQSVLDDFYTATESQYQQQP
Outline: as §1

PKBα(h) = PKBα(h) (Homo sapiens, UniProt P31749)
Sequence of PKBα(h) (P31749 whole entry): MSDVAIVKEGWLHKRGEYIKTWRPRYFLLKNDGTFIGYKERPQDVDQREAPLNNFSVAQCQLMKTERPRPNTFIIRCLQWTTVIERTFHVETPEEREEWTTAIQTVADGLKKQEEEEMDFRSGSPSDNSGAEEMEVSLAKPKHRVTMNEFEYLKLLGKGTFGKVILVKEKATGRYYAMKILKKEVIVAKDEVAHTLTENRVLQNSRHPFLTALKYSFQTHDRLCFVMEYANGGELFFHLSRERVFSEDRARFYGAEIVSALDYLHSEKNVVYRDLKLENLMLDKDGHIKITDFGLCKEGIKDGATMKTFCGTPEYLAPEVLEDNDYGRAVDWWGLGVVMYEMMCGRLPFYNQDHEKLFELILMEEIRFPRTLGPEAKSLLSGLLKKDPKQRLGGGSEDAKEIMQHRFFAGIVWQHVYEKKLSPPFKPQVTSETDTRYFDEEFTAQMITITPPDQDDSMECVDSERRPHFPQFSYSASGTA
Outline: as §1

CK2(h) = CK2(h) (Homo sapiens, UniProt P68400)
Sequence of CK2(h) (P68400 whole entry): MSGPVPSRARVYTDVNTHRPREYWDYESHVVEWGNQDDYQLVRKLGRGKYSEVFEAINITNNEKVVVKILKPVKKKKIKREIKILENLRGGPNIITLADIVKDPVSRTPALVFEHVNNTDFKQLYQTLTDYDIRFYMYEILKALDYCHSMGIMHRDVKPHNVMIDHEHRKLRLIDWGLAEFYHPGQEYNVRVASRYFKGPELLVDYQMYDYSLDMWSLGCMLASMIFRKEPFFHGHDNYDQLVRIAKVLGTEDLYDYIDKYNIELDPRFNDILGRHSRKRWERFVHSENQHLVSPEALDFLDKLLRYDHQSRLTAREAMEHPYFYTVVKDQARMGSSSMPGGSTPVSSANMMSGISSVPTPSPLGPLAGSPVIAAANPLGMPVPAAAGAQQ
Sequence of CK2(h) (P67870 whole entry partner): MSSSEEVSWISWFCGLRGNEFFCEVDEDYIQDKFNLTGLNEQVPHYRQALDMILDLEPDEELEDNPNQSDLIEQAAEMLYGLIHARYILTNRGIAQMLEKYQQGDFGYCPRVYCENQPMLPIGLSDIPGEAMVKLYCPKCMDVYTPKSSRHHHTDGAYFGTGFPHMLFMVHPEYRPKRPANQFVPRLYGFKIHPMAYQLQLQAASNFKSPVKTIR
Outline: as §1

DAPK1(h) = DAPK1(h) (Homo sapiens, UniProt P53355)
Sequence of DAPK1(h) (P53355 whole entry): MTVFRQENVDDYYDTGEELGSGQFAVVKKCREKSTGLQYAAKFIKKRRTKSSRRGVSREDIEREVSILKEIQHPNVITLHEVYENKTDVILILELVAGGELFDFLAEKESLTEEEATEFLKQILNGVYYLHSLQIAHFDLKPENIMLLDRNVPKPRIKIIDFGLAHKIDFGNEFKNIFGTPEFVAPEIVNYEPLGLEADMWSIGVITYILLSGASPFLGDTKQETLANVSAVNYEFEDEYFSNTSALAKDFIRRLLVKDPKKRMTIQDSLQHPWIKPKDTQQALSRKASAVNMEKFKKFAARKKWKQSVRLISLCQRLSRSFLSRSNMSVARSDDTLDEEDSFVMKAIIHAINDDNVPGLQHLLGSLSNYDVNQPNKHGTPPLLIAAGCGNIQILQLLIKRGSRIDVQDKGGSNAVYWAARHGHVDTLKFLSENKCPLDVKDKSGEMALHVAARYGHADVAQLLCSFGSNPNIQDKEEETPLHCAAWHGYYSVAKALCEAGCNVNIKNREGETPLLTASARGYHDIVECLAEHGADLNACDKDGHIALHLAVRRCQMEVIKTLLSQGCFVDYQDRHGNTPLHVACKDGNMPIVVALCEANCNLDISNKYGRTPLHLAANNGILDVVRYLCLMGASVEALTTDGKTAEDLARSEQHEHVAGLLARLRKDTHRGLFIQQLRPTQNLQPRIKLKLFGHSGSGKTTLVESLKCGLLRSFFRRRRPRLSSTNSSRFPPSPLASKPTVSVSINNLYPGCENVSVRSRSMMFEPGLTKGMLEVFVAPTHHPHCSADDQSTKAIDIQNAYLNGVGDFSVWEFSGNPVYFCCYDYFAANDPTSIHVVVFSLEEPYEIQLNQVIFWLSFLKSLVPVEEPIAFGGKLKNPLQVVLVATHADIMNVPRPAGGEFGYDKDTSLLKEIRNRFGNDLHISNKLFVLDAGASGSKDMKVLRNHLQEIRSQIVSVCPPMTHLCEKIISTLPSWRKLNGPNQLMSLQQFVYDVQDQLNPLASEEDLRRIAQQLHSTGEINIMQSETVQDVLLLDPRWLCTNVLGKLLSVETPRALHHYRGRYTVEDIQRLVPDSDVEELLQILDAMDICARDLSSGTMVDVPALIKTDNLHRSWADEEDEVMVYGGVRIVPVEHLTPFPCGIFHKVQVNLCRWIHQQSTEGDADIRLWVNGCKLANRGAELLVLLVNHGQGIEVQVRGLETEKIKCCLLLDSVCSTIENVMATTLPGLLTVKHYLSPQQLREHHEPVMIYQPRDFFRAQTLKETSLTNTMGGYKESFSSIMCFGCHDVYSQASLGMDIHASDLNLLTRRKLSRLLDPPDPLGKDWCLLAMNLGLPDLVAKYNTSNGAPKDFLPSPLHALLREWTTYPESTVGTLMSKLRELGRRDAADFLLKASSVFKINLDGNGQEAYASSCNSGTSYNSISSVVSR
Outline: as §1

Rse(h) = target: T3, Rse(h) (Homo sapiens, UniProt Q06418)
T3 sequence (Q06418 41-890): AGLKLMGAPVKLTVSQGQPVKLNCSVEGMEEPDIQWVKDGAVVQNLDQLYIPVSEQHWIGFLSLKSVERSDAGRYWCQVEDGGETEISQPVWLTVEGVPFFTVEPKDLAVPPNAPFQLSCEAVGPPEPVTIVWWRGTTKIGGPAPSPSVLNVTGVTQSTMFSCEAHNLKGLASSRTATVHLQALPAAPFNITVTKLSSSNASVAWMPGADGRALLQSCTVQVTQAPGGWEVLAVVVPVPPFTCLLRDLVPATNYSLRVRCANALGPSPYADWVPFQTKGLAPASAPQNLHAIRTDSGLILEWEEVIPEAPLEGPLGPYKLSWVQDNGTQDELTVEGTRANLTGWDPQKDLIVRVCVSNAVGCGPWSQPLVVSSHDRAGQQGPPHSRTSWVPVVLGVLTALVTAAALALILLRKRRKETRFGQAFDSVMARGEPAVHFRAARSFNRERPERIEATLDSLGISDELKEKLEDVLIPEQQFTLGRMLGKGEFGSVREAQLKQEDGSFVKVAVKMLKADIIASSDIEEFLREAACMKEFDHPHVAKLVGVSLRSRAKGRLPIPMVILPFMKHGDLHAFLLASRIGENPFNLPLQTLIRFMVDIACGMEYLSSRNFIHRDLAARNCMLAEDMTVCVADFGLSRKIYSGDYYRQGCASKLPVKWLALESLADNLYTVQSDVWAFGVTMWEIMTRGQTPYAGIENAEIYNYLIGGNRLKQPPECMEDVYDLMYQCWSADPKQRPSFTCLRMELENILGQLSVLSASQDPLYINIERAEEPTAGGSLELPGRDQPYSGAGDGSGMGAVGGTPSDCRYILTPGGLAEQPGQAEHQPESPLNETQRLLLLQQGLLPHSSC
Outline: as §1

MLCK(h) = target: T4, MLCK(h) (Homo sapiens, UniProt Q9H1R3)
T4 construct: purchased Millipore
T4 sequence (Q9H1R3 2-596 limits assumed): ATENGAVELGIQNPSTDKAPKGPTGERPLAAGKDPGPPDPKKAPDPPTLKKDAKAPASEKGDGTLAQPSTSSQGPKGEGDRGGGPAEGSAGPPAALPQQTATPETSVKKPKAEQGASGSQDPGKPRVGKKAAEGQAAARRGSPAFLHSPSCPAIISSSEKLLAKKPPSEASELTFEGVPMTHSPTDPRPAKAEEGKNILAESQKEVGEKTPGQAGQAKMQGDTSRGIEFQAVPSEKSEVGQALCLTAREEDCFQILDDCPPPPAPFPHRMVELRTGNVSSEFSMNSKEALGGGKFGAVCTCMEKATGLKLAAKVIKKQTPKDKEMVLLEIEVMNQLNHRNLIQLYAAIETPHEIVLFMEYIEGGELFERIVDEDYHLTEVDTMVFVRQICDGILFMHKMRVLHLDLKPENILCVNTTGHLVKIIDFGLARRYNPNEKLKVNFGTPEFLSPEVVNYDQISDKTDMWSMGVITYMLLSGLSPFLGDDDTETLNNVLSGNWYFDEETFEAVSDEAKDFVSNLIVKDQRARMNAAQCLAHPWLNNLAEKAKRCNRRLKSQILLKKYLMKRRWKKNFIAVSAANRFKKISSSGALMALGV
Outline: as §1

IRR(h) = target: T5, IRR(h) (Homo sapiens, UniProt P14616)
T5 construct: purchased Millipore
Outline: as §1

Pim-3(h) = Pim-3(h) (Homo sapiens, UniProt Q86V86)
Outline: as §1

SAPK2a(h) = target: T6, SAPK2a(h) (Homo sapiens, UniProt Q16539)
T6 construct: purchased Millipore
T6 sequence (Q16539 whole entry): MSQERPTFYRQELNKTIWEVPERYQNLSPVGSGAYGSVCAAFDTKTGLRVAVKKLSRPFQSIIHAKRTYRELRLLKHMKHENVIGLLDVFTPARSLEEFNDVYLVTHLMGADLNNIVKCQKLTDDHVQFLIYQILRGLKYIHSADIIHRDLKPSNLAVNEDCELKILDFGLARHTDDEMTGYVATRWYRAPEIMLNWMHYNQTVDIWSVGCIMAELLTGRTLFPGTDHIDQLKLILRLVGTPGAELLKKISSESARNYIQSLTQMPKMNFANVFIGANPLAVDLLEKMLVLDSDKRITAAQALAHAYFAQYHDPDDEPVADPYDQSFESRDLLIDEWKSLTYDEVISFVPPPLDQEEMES
Outline: as §1

TrkA(h) = TrkA(h) (Homo sapiens, UniProt P04629)
Outline: as §1

PKBγ(h) = PKBγ(h) (Homo sapiens, UniProt Q9Y243)
Sequence of PKBγ(h) (Q9Y243 whole entry): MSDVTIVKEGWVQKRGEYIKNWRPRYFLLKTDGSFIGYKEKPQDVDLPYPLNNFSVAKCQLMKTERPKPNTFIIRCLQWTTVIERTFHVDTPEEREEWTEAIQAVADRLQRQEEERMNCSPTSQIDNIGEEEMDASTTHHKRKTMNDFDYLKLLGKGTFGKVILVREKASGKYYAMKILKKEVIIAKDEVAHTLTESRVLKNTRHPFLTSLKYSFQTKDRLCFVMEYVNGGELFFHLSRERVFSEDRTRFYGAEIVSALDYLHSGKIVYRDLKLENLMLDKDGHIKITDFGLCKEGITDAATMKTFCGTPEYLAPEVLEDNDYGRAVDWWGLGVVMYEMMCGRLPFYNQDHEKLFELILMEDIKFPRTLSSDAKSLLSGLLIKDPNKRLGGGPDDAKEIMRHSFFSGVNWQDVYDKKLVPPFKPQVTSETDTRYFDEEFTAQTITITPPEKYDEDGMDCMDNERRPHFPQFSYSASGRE
Outline: as §1

cKit(V654A)(h) = cKit(V654A)(h) (Homo sapiens, UniProt P10721, V654A)
Outline: as §1

Sequence	% activity (SAPK3(h))	% activity (Hck(h) activated)	% activity (PKBα(h))	% activity (CK2(h))	% activity (DAPK1(h))	% activity (Rse(h))	% activity (MLCK(h))	% activity (IRR(h))	% activity (Pim-3(h))	% activity (SAPK2a(h))	% activity (TrkA(h))	% activity (PKBγ(h))	% activity (cKit(V654A)(h))
FAKLAARLYRKALARQLGVAA [MMI-0300]	84%	82%	57%	90%	46%	88%	2%	8%	80%	90%	25%	20%	134%
HRRIKAWLKKIKALARQLGVAA (Mammal) [MMI-0500]	24%	67%	30%	93%	0%	63%	0%	10%	37%	52%	24%	20%	223%
KAFAKLAARLYRKALARQLGVAA [MMI-0400]	79%	81%	67%	101%	36%	89%	1%	8%	80%	85%	17%	41%	150%
YARAAARQARAKALARQLGVAA [MMI-0100]					97%		85%	85%			74%		69%
YARAAARQARAKALNRQLGVA (Mammal) [MMI-0200]	97%	100%	110%	83%		88%		69%	94%				

From US20150258192A1, “COMPOSITIONS AND METHODS FOR PREVENTING OR TREATING CHRONIC LUNG ALLOGRAFT DYSFUNCTION (CLAD) AND IDIOPATHIC PULMONARY FIBROSIS (IPF)” (priority 2014, published 2015)
